From paper PMC8318587, “Structure-guided microbial targeting of antistaphylococcal prodrugs” (eLife, 2021)

Experiments:
Experiment in all cases: Esterase substrate specificity, fluorogenic SAR library kinetics
Assay type in all cases: biochemical, Staphylococcus aureus
Settings in all cases: other: SaGloB, fluorogenic ester substrate; pH 7.5; 37.0 °C
[1] = substrate: CC(C)OCC(=O)OCOc1ccc2c(c1)Oc1cc(OCOC(=O)COC(C)C)ccc1C21OC(=O)c2ccccc21
Experimental: (§1) Kinetic measurements were performed according to [White et al., 2018] with minor variation. Lyophilized human and mouse sera were resuspended according to manufacturer instructions in highly pure, filtered water at protein concentrations of 85 mg/mL and 70 mg/mL, respectively. One milliliter of resuspended serum was added to a 24 mL mastermix for a final concentration of 31.25 mM Tris pH 7.5, 312.5 mM NaCl, 1.25 mM MgCl2, 12.5% glycerol, and 3.4 mg/mL or 2.8 mg/mL protein for human and mouse serum, respectively. For purified proteins, 5 mL of a 75 µg/mL stock was added to yield a 20 mL mastermix containing 31.25 mM Tris pH 7.5, 312.5 mM NaCl, 1.25 mM MgCl2, 12.5% glycerol, and 18.75 µg/mL protein. Mastermix was stored on ice when not in use. Twenty microliters of mastermix was transferred to a black, 96-well half area microplate (Corning, CLS3993) and prewarmed at 37°C. Fluorogenic substrates were prepared as 10 mM stock solutions in 100% DMSO and were diluted in water to a starting concentration of 500 µM. Enzyme catalyzed substrate hydrolysis was initiated by addition of 5 µL substrate dilution in technical duplicate to the prewarmed serum or protein solution. Final assay concentrations were as follows: 25 mM Tris pH 7.5, 250 mM NaCl, 1 mM MgCl2, 10% glycerol, and protein at a concentration of 2.72 mg/mL (human serum), 2.24 mg/mL (mouse serum), or 15 µg/mL (FrmB, GloB). The resulting change in fluorescence (λex = 485 nm, λem = 520 nm) was followed for 15 min at 37°C, collecting data every 30 s on a FLUOstar Omega microplate reader (BMG Labtech). Fluorescence measurements were converted to molar concentrations using a fluorescein standard curve (2.5 nmol–0.6 pmol). The initial rates of reaction were measured three independent times with two technical replicates per measurement and fit to a line using GraphPad Prism (GraphPad Software, La Jolla, CA). Initial rates of reaction were plotted versus the concentration of substrate and fit to a standard Michaelis–Menten equation (v = Vmax[S]/(Km + [S])), yielding estimates of Vmax and Km. Values for kcat and kcat/Km were calculated based on amount of enzyme added when purified enzymes were used.

[2] = substrate: CC(C)SCC(=O)OCOc1ccc2c(c1)Oc1cc(OCOC(=O)CSC(C)C)ccc1C21OC(=O)c2ccccc21
Experimental: as §1

[3] = substrate: CSCC(=O)OCOc1ccc2c(c1)Oc1cc(OCOC(=O)CSC)ccc1C21OC(=O)c2ccccc21
Experimental: as §1

[4] = substrate: COC(C)C(=O)OCOc1ccc2c(c1)Oc1cc(OCOC(=O)C(C)OC)ccc1C21OC(=O)c2ccccc21
Experimental: as §1

[5] = substrate: CCSCCC(=O)OCOc1ccc2c(c1)Oc1cc(OCOC(=O)CCSCC)ccc1C21OC(=O)c2ccccc21
Experimental: as §1

[6] = substrate: CCOCC(=O)OCOc1ccc2c(c1)Oc1cc(OCOC(=O)COCC)ccc1C21OC(=O)c2ccccc21
Experimental: as §1

[7] = substrate: CCCOCC(=O)OCOc1ccc2c(c1)Oc1cc(OCOC(=O)COCCC)ccc1C21OC(=O)c2ccccc21
Experimental: as §1

B1: SaGloB (Staphylococcus aureus subsp. aureus str. Newman) (protein)
chain: MRISSLTLGLVDTNTYFIENDKAVILIDPSGESEKIIKKLNQINKPLKAILLTHAHFDHIGAVDDIVDRFDVPVYMHEAEFDFLKDPVKNGADKFKQYGLPIITSKVTPEKLNEGSTEIEGFKFNVLHTPGHSPGSLTYVFDEFAVVGDTLFNNGIGRTDLYKGDYETLVDSIQDKIFELEGDLPLFPGHGPYTTVDDEQLNPFLHG
Km [1]: 12.0 µM
Vmax [1]: 2.91 pmol*min-1*μg protein-1
kcat [1]: 0.435 10-3 s-1
kcat/Km [1]: 36.1 M⁻¹ s⁻¹
Km [2]: 65.8 µM
Vmax [2]: 4.19 pmol*min-1*μg protein-1
kcat [2]: 0.627 10-3 s-1
kcat/Km [2]: 9.53 M⁻¹ s⁻¹
Km [3]: 32.49 µM
Vmax [3]: 14.9 pmol*min-1*μg protein-1
kcat [3]: 2.22 10-3 s-1
kcat/Km [3]: 68.4 M⁻¹ s⁻¹
Km [4]: 20.5 µM
Vmax [4]: 23.1 pmol*min-1*μg protein-1
kcat [4]: 3.45 10-3 s-1
kcat/Km [4]: 168 M⁻¹ s⁻¹
Km [5]: 31.7 µM
Vmax [5]: 0.18 pmol*min-1*μg protein-1
kcat [5]: 0.0266 10-3 s-1
kcat/Km [5]: 0.840 M⁻¹ s⁻¹
Km [6]: 42.0 µM
Vmax [6]: 46.4 pmol*min-1*μg protein-1
kcat [6]: 6.93 10-3 s-1
kcat/Km [6]: 165 M⁻¹ s⁻¹
Km [7]: 8.41 µM
Vmax [7]: 4.21 pmol*min-1*μg protein-1
kcat [7]: 0.630 10-3 s-1
kcat/Km [7]: 74.8 M⁻¹ s⁻¹
